The record followed here is article PMC4653635, “Folding of newly translated membrane protein CCR5 is assisted by the chaperonin GroEL-GroES” (Scientific Reports, 2015).

Settings in all cases: one partner purified
For experiment [1], the target named is T1, Human CC chemokine receptor type 5 (CCR5), C-terminally 6 × His-tagged (human, UniProt P51681 1-352).
T1 construct: CC chemokine receptor type 5 (CCR5), human; 352 amino acids, 40.5 kDa as printed; cloned in pIVEX2.3d; The same construct was made with no chaperonin, with GroEL-GroES (0.04:0.08 uM) or with GroEL alone (0.04 uM) added to the cell-free reaction; these three samples are kept apart as assays; For one gel, BODIPY-labelled lysines were incorporated during translation; also called CCR5 receptor; …
T1 sequence (P51681 whole entry): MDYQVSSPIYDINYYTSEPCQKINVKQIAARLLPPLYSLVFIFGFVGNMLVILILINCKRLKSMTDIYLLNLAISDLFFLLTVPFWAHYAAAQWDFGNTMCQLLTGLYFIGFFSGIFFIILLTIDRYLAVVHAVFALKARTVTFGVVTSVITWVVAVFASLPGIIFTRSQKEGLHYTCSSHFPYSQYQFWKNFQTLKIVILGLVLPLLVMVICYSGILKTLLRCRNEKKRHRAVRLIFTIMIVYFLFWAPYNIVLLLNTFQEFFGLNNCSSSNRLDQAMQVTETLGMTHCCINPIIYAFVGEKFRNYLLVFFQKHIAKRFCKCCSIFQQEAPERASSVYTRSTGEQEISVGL
Briefly: quartz crystal microbalance (QCM); CCR5 made without added chaperonin; supernatant diluted 20 times and immobilised on a Q-Sense His-tag Capturing Sensor; CCL11 flowed over; 25 °C; 25 mM HEPES, 0.12 M NaCl, 0.2% Brij35, pH 7.6; 1:1 binding model.

Experiment [2] addresses T1, Human CC chemokine receptor type 5 …. In words: quartz crystal microbalance (QCM); CCR5 made with GroEL alone added to the cell-free reaction; supernatant diluted 20 times and immobilised on a Q-Sense His-tag Capturing Sensor; CCL11 flowed over; 25 °C; 25 mM HEPES, 0.12 M NaCl, 0.2% Brij35, pH 7.6; 1:1 binding model.
Experiment [3] has the same target. Briefly: quartz crystal microbalance (QCM); CCR5 made with GroEL-GroES added to the cell-free reaction; supernatant diluted 20 times and immobilised on a Q-Sense His-tag Capturing Sensor; CCL11 flowed over; 25 °C; 25 mM HEPES, 0.12 M NaCl, 0.2% Brij35, pH 7.6; 1:1 binding model.

B1: eotaxin (CCL11) (ligand)
chain: not shown
notes: eotaxin (CCL11)
As for B1, the dissociation constant (Kd) – broadly, the equilibrium constant for the complex coming apart – in experiment [1] was 97 nM; in experiment [2] it was 55 nM; in experiment [3], 44 nM. For the same molecule, the koff (as a rule, the rate constant with which the complex falls apart) in experiment [1] amounted to 0.00046 s⁻¹; in experiment [2], 0.00025 s⁻¹; in experiment [3] it was 0.0002 s⁻¹. Besides, the kon (commonly the second-order rate constant of association) amounted to 4700 M⁻¹ s⁻¹ in experiment [1], 4600 M⁻¹ s⁻¹ in experiment [2] and 4500 M⁻¹ s⁻¹ in experiment [3].
